The supplement of paper PMC10567573
± gives the standard deviation.

Experiment: protein stability index of a GFP-peptide fusion (GPS, HEK-293T) (PSI 1-6); higher = more stable
[1] = treatment: DMSO, c terminus: a fixed tail appended
[2] = treatment: MLN4924 1 uM, 8 h, c terminus: a fixed tail appended
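Further: 24-mer peptide tiles fused after GFP, lentivirally expressed, FACS-sorted into six equal bins by GFP/DsRed ratio, decoded by Illumina sequencing, PSI is the read-weighted mean bin number.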

Sequence | protein stability index [1] | protein stability index [2] | protein stability index (treatment: DMSO, c terminus: native) | protein stability index (treatment: MLN4924 1 uM, 8 h, c terminus: native)
TLTWDSGNPEPVSYYIIQHKPKNS [PTPRD] | 2.69 ± 0.12 | 3.05 ± 0.41 |  | 
TNLPIFKLKESTVRRRYSDFEWLR [SNX3] | 2.62 ± 0.3 | 2.53 ± 0.36 |  | 
SFQNMNSKRKAETWKKNRRQLAYS [STK38L] | 3.23 ± 0.33 | 3.33 ± 0.22 |  | 
EALLDRESENASLREKLRLREAEI [LRRC45] | 4.77 ± 0.26 | 4.89 ± 0.083 |  | 
FLGISIVGQSNERGDGGIYIGSIM [DVL3] | 2.87 ± 0.99 | 2.61 ± 0.68 |  | 
FLRCVTAALIYFAISITAIAKYSD [CMTM3] | 3.41 ± 0.29 | 3.43 ± 0.32 |  | 
ASFRVTTGTSNTTAIKSIEFARKG [RBBP5] | 3.91 ± 0.62 | 3.86 ± 0.23 |  | 
GLPGSGKTTLARQLQHDFPRALIF [N4BP2L1] | 2.25 ± 0.18 | 2.56 ± 0.23 |  | 
IILTATDGLFDNMPDYMILQELKK [PPTC7] | 2.31 ± 0.32 | 2.22 ± 0.19 |  | 
SRGLHAWEISWPLEQRGTHAVVGV [SPSB2] | 2.43 ± 0.4 | 2.17 ± 0.44 |  | 
HRPSLNSVSLQINCQSVAQMNLLQ [DLC1] | 2.4 ± 0.4 | 2.52 ± 0.32 |  | 
VVWNAQTGEKLLELNGHTQKITAI [WDR41] | 2.19 ± 0.2 | 2.31 ± 0.17 |  | 
PRPPSNPPARGTLKTSNLPEELRK [TRAF3IP2] | 4.71 ± 0.2 | 4.79 ± 0.3 |  | 
LVVILLSIVAVGFHIFRTLEVNRL [PKD2L1] | 3.44 ± 0.88 | 3.12 ± 0.23 |  | 
QLKLDHYRAALRSCSLVLEHQPDN [FKBP8] | 2.93 ± 0.18 | 2.98 ± 0.27 |  | 
KKHAAYAWPFYKPVDAEALELHDY [BRD3] | 2.97 ± 0.39 | 2.96 ± 0.38 |  | 
MSYSCCLPSLGCRTSCSSRPCVPP [KRT34] | 2.22 ± 0.17 | 2.37 ± 0.4 |  | 
QQQQAMSFAILRIIRLVRVFRIFK [KCNA4] | 2.71 ± 0.24 | 3.01 ± 0.26 |  | 
HDGEDVACPQGGVQYGAGVACSET [LOXL2] | 4.99 ± 0.31 | 5.42 ± 0.32 |  | 
MVERRGPGRPRTDGENVFTGQSKI [KMT5A] | 4.19 ± 0.36 |  |  | 
LHTAREFSEEDEEETTSQDWGTPR [RTN2] | 5.4 ± 0.27 | 5.46 ± 0.23 |  | 
TPAPMSSAWKTVACGGTRDQLFMQ [MYBL2] | 2.75 ± 0.17 | 2.69 ± 0.3 |  | 
STSFLPELSSVHPPHYFFTYRIRI [FBXO3] | 2.66 ± 0.33 | 2.85 ± 0.48 |  | 
AAPFPSPAPASPAISVVGVSAGGH [TFE3] | 4.24 ± 0.35 | 4.16 ± 0.38 |  | 
GQDKQFAWHCSESGQRLGGYRTSA [WDFY2] | 3.51 ± 0.24 | 3.24 ± 0.28 |  | 

Sequence | protein stability index [1] | protein stability index [2] | protein stability index (treatment: DMSO, c terminus: native) | protein stability index (treatment: MLN4924 1 uM, 8 h, c terminus: native)
PGEPNNAGNNEHCGNIKAPSLQAW [CD207] | 4.38 ± 0.12 | 4.21 ± 0.078 |  | 
SEARLSQRDLSPTAEDAELSDFEE [FCHSD1] | 5.44 ± 0.38 | 5.53 ± 0.39 |  | 
SAHFTSGPLVPRLAGMANHGSPQL [TBX5] | 3.35 ± 0.21 | 3.5 ± 0.13 |  | 
LHAELCQAGSSQGLSLCQFQNFSL [LPCAT4] | 2.42 ± 0.33 | 2.21 ± 0.13 |  | 
YQLGEEAMEKFREDEGFLREEERP [KCNA3] | 5.13 ± 0.2 | 5.27 ± 0.24 |  | 
IVGYAFHFPHLLSPQIQRSAHRAL [TMEM175] | 2.23 ± 0.24 | 2.54 ± 0.51 |  | 
TKKRHTPRGHAESTSNRQPRKQG [SMOC2] |  |  | 2.59 ± 0.62 | 3.3 ± 0.49
WDKEPWFWHDTLTEQLWRIFAGVH [TLE6] | 2.61 ± 0.82 | 2.22 ± 0.57 |  | 
INPYSNRESRILFSTWNLDHIIEK [DFFB] | 2.54 ± 0.1 | 2.61 ± 0.099 |  | 
NKFASFIDKVRFLEQQNQVLETKW [KRT71] | 2.58 ± 0.42 | 2.49 ± 0.4 |  | 
GKSRLSPAGEMKPMPLSEGKSILL [BCL2L13] | 3.44 ± 0.32 | 3.44 ± 0.32 |  | 
LKVVHELPACTLCAGPLEDAVTIP [TRIM15] | 2.76 ± 0.13 | 3.15 ± 0.26 |  | 
VCSDYASGYHYGVWSCEGCKAFFK [ESR2] | 2.33 ± 0.35 | 2.56 ± 0.34 |  | 
SEQLVNFTGKAEMGGPFSYVYFFC [TMEM106C] | 2.69 ± 0.48 | 2.64 ± 0.45 |  | 
RFPYLCQKNGGGAYLVPYLVLLII [SLC6A17] | 2.64 ± 1.1 | 2.49 ± 0.94 |  | 
TTQDLFAINRDTAFPGASHESSGN [RHOBTB3] | 4.57 ± 0.51 | 4.87 ± 0.15 |  | 
WIQFNHPYTEKPRLWHTACASDEG [KLHDC2] | 2.28 ± 0.31 | 2.4 ± 0.13 |  | 
CRGIPRGPVRPAIPPPLSSVYAWG [NEK8] | 2.3 ± 0.36 | 2.35 ± 0.43 |  | 
ALGIYGAPYAAAAAAQSYPGYLPY [IRX6] | 2.23 ± 0.14 | 2.19 ± 0.27 |  | 
NDGWTPLHVAAHYGRDSFVRLLLE [ASB7] | 2.45 ± 0.18 | 2.59 ± 0.27 |  | 
SSQSSLAQEEEEEDQGRTRKRKQS [DDIT3] | 5.55 ± 0.32 | 5.44 ± 0.09 |  | 
REEQCAAYNHRTDLFKSFPGPMDW [ADAMTS4] | 3.06 ± 0.45 | 3.1 ± 0.3 |  | 
FLVGLLFVQRSGNYFVTMFDDYSA [SLC6A17] | 3.05 ± 0.76 | 3.27 ± 0.38 |  | 
MMVRQMKEDAKGKSEEELAECFRI [TNNC2] |  | 4.3 ± 0.52 |  | 
PEGPEPAAPGKQPGRGHTHAAQGG [ELOA2] | 5.39 ± 0.27 | 5.51 ± 0.16 |  | 

Sequence | protein stability index [1] | protein stability index [2] | protein stability index (treatment: DMSO, c terminus: native) | protein stability index (treatment: MLN4924 1 uM, 8 h, c terminus: native)
PRPVQLDETHPYTVTSVSCCHGNT [NEK8] | 3.94 ± 0.23 | 4.02 ± 0.14 |  | 
QLAQDDIDGIQAIYGRSQNPVQPI [MMP1] | 3.69 ± 0.1 | 3.9 ± 0.14 |  | 
PSSQLMPVKKQLQGASWELQSLRP [ZNF396] | 3.66 ± 0.34 | 3.78 ± 0.25 |  | 
TASTAPPVPATAPSPAPAVAAAAA [SNAP91] | 5.09 ± 0.19 | 5.08 ± 0.12 |  | 
PGFSSLSLSDQMSVLQSVWMEVLV [ESRRA] | 2.38 ± 0.33 | 2.08 ± 0.27 |  | 
VLRLCCKKLKIFAMPMQDIKMILK [PRAME] | 2.81 ± 0.38 | 2.73 ± 0.52 |  | 
MERPQPDSMPQDLSEALKEATKEV [HMOX1] | 5.44 ± 0.25 | 5.43 ± 0.22 |  | 
LKNIRHRPGGGRVKIESVKLDFKE [MAP2] | 3.22 ± 0.29 | 3.52 ± 0.38 |  | 
GGYLQRTTYDRRSSQERKFMEERE [RSPH3] | 4.82 ± 0.21 | 4.76 ± 0.17 |  | 
SRGGTRGWLPSHEGHLDDGGYTPD [RBMY1A1] | 4.73 ± 0.29 | 4.75 ± 0.24 |  | 
SLIILHLSGATKKGTEKQTTSETQ [NETO1] | 2.35 ± 0.26 | 2.27 ± 0.56 |  | 
SALERLETKLHLLRQEMVNLRATD [LURAP1L] | 2.73 ± 0.22 | 2.79 ± 0.58 |  | 
SDELSWIIELLEKDGMAFQEALDP [ELF3] | 2.62 ± 0.34 | 3.02 ± 0.26 |  | 
AAKPAASITSKPATLTTTSATSKL [ZNF207] | 4.6 ± 0.12 | 4.6 ± 0.17 |  | 
NITRLQLETEIEALKEELLFMKKN [KRT18] | 2.82 ± 0.091 | 3.05 ± 0.51 |  | 
RGDRGPGPALAGEPAGSLRELGVW [C2CD2L] | 3.25 ± 0.14 | 3.55 ± 0.27 |  | 
ARQELLGDRPRWQRLLGEDKFQWL [ANKRD9] | 2.66 ± 0.46 | 2.98 ± 0.31 |  | 
TRNSPRGCRLPSISSTTCGRQLEK [SPATS1] | 3.81 ± 0.26 | 4 ± 0.18 |  | 
LIDYKSYMDTKLLVARFLEQSSCT [FAM189A2] | 2.38 ± 0.091 | 2.25 ± 0.19 |  | 
RRLLVKDPKRRMTIAQSLEHSWIK [DAPK3] | 2.67 ± 0.25 | 2.82 ± 0.4 |  | 
HKKDCAREKPFKCQECGKTFRVSS [ZNF75A] | 3.45 ± 0.38 | 3.65 ± 0.41 |  | 
SCSSEDNLSLVCLPRSEDDDCDDD [DRICH1] | 5.59 ± 0.17 | 5.66 ± 0.15 |  | 
PRELFPPLFMAAFDGRHSQTLKAM [PRAME] | 2.65 ± 0.41 | 2.69 ± 0.27 |  | 
FIYDMCGSNYANFELDLGKKVLNL [PTPN9] | 3.01 ± 1.1 | 2.22 ± 1.5 |  | 
